For one assay, the system named is BV2 cells. The assay is described as follows: Kifunensine treatment, WGA-FITC staining of cell surface carbohydrates. Conditions: 1 μg/ml kifunensine for at least 48 hours. Type of assay: cell-based, mouse. As for the experimental part:
(§1) To determine the effect of glycans on MNoV binding, parental BV2 cells, ΔCD300lf BV2 clone 1 cells complemented with an empty lentivirus, and ΔCD300lf BV2 clone 1 cells complemented with CD300lf were cultured in the presence of 1 μg/ml of kifunensine (Santa Cruz Biotechnology) for at least 48 hours prior to use. Kifunensine activity was determined by staining cells with FITC-conjugated wheat germ agglutinin (WGA) at 1 μg/ml final concentration (Sigma Aldrich). The reduction in glycosylation was determined by comparing the mean fluorescence intensity (MFI) with and without kifunensine treatment. WGA binding was determined at the time of each binding assay.

The subject of assay [1] is MNoV^CW3. The assay is described as follows: MNoV binding assay to BV2 cells (bound genomes by qPCR). The assay is classed as cell-based, murine norovirus. As for the experimental part: MNoV^CW3 quantitiatve PCR (qPCR) was performed as previously described. Briefly, 5 μl of extracted viral RNA was used for cDNA synthesis using random hexamers and ImProm Reverse Transcriptase (Promega, Madison, Wis.) in 20 μl total volume. TaqMan qPCR was performed in triplicate on each sample and standard with forward primer SEQ ID NO:20 (5′ […] 3′), reverse primer SEQ ID NO:21 (5′ GCGCTGCGCCATCACTC 3′), and probe.
MNoV^CW3 binding to BV2 cells was performed for 1 hour at 4° C. in 0.5 ml complete growth media. sCD300lf was incubated with MNoV^CW3 for 30 minutes at room temperature prior to addition to cells. α-CD300lf was incubated with cells for 30 minutes at 4° C. prior to the addition of MNoV^CW3. BV2 cells were used at final concentration of 2×10^6 cells/ml, and MNoV^CW3 was used at a final concentration of 1.6×10^9 copies/ml (2.5×10^6 PFU/ml). Cells were centrifuged at 500 g for 5 min at 4° C. to remove unbound virus. Cells were washed with four 1.0 ml washes with PBS containing 2.5% FBS and 2 mM EDTA. The cell pellet was resuspended in 100 μl PBS, and RNA was extracted with the ZR Viral RNA kit (Zymo Research) according to manufacturer instructions. qPCR was performed as described above. Binding experiments were done in triplicate in each of at least three independent experiments. A condition containing virus but no cells was used to determine assay background.
as §1
In general terms: Real-time PCR tracks product formation cycle by cycle.

In assay [2] the test system is MNoV^CW3. Description: BMDM infection, FACS for intracellular MNoV NS1/2 expression. The assay is classed as cell-based, murine norovirus. Conditions: virus preincubated with sCD300lf or cells treated with α-CD300lf; MOI 5.0. As to the method:
BL6 myeloid progenitors were obtained from mice (FIG. 2E) or from HoxB8-immortalized progenitors (FIG. 2D) as previously described.HoxB8-immortalized progenitors were maintained in RPMI 1640 supplemented with 1 μM β-estradiol and 25 ng/ml GM-CSF. Progenitors were differentiated into macrophages by washing the cells in PBS and plating 1×10^6 cells into BMDM media (Dulbeco's Modified Eagle Medium, 10% fetal bovine serum, 5% horse serum, 10% CMG14-12 [6], 1 mM sodium pyruvate, 2 mM L-glutamine). After 7 days of differentiation, macrophages were dissociated and 5×10^6 cells/well were seeded into a 6-well dish. Three days later, MNoV^CW3 was added to cells at an MOI of 5.0. One day post infection, MNoV NS1/2 expression was detected by flow cytometry.
Infected cells were fixed and permeabilized with Cytofix/Cytoperm (BD biosciences) Rabbit polyclonal antibody targeting the MNoV nonstructural protein NS1/2 antibody was added at a 1:5000 dilution (Gift from Vernon Ward). Cells were incubated for 30 min. at room temperature. Cells were then washed and DyLight 649 donkey anti-rabbit IgG was added and incubated for 30 min. Cells were then washed and analyzed on an LSRII flow cytometer (BD). At least 20,000 events were collected per condition. Each experiment was performed in triplicate in each of three independent experiments.

The test system of assay [3] is MNoV^CW3. Description: MNoV neutralization with α-CD300lf and sCD300lf (cytotoxicity, CellTiter-Glo). The assay is classed as cell-based, murine norovirus. The note with it: virus preincubated with protein, 0.01 to 10 μg/ml; 24 hours post-infection. As to the method: MNoV neutralization was assessed by measuring cytotoxicity. 2.5×10^4 BV2 cells were plated per well of a 96-well plate. For antibody-mediated neutralization, cells were then incubated for 1 hour at 37° C. with polyclonal α-CD300lf (R&D systems AF2788) or an isotype control (R&D systems AB-108-C) at a final concentration from 0.01 to 10 μg/ml. MNoV^CW3 was then added at an MOI of 5 in a total volume of 100 μl. After 24 hours at 37° C., 25 μl of CellTiter-Glo (Promega) was added per well to measure cellular ATP concentrations. For sCD300lf neutralization, the assay was performed similarly except that 1.25×10^5 PFU of MNoV^CW3 was incubated with sCD300lf or a control protein (Domain III of West Nile Virus Envelope) at a final concentration from 0.01 μg to 10 μg/ml prior to addition of BV2 cells. Relative luminescence units were detected on Molecular Devices SpectraMax M2 plate reader. All conditions were normalized to an uninfected control. Each condition was done in quadruplicate in each of three independent experiments.
On the technique in general: Cellular ATP, detected with luciferase, serves as a proxy for viable cell number.

In assay [4] the test system is MNoV^CW3. The assay is described as follows: Spleen-derived MNoV neutralization (plaque assay). The note with it: 75 PFU spleen-derived or BV2-derived virus, 10 μg/ml, 30 min preincubation. Type of assay: cell-based, murine norovirus. As for the experimental part: BV2 cells were seeded at 1×10^6 cells/well of a six-well plate. 16-24 hours later, media was removed and 10-fold dilutions of cell lysate is applied to each well for 1 hour with gentle rocking. Viral inoculum was removed and 2 ml of overlay media was added (MEM, 10% FBS, 2 mM L-Gluatmine, 10 mM HEPES, and 1% methylcellulose). Plates were incubated for 2-3 days prior to visualization with crystal violet solution (0.2% crystal violet and 20% ethanol).
To isolate in vivo derived MNoV^CW3, five 7-8 week old C57BL/6J were inoculated PO with 10^6 PFU MNoV^CW3 in 25 μl PBS. Three days post inoculation, mice were sacrificed and spleens were harvested. Spleens were processed by bead beating with 1 mm silica beads (Biospec, Bartlesville, Okla.) for 1 minute. The spleen extract was centrifuged for 5 minutes at 3,000 g, the supernatant was filtered through a 0.22 μm filter, frozen at −80° C., and titered on BV2 cells as described previously.
75 PFU of either BV2 cell-derived or spleen-derived MNoV^CW3 was incubated for 30 min. at room temperature with either sCD300lf or WNV E DIII at 10 μg/ml final concentration in 100 μl total volume of D10. Each sample was then added to a confluent monolayer of BV2 cells in a 6-well plate and incubated for 1 hr. at room temperature. […] Complete media containing methylcellulose was then added and plaque formation was assessed as described previously. […]

Assay [5] has as its system MNoV^CW3. The assay is described as follows: Challenge of STAT1−/− mice with preincubated MNoV^CW3, survival. Type of assay: in vivo, murine norovirus. Conditions: PO 10^3 or 10^5 PFU MNoV^CW3 preincubated at 10 μg/ml, 28 days. As for the experimental part: B6.129S(Cg)-Stat1^tm1Div/J (STAT1^−/−) mice and C57BL/6J (Jackson Laboratories, Bar Harbor, Me.) and Fut2^−/− (B6.129X1-Fut2^tm1Sdo/J) mice (a generous gift from Dr. Alexander V. Chervonsky) were housed in a specific-pathogen free environment at Washington University. The care and use of all animals was approved by and in accordance with the Washington University Animal Studies Committee. For the challenge of STAT^−/− mice, MNoV^CW3 was incubated with sCD300lf or WNV E DIII at a final concentration of 10 μg/ml for 30 minutes at room temperature. STAT1^−/− mice were challenged with 25 μl PO of 10^3 or 10^5 PFU of MNoV^CW3 diluted in D10. STAT1^−/− mice were singly housed immediately after inoculation and monitored daily for survival for 28 days. Experiments were performed three independent times with gender-balanced littermate controls at both 10^3 and 10^5 PFU challenge doses.

Turning to `O=C1N[C@@H]2[C@@H](O)[C@@H](O)[C@H](O)[C@@H](CO)N2C1=O` [kifunensine], the “Cell surface carbohydrates (WGA-FITC binding, MFI)” value with BV2 cells is reported as “significantly reduced cell surface carbohydrates”. For the same molecule, the “MNoV^CW3 binding to kifunensine treated cells” value in the assay on MNoV^CW3 [1] (wild type or CD300lf-mutant BV2 cells, 1 μg/ml kifunensine) was “did not significantly alter MNoV^CW3 binding”.

B1: sCD300lf: recombinant, soluble ectodomain of mouse CD300lf (residues 20-128 of GenBank AAH57864.1), expressed in E. coli and refolded (protein)
chain: MEDPVTGPEEVSGQEQGSLTVQCRYTSGWKDYKKYWCQGVPQRSCKTLVETDASEQLVKKNRVSIRDNQRDFIFTVTMEDLRMSDAGIYWCGITKGGLDPMFKVTVNIGP
For B1, the “MNoV^CW3 infection of primary bone marrow-derived macrophages (NS1/2 expression by FACS)” value in the assay with MNoV^CW3 [2] is “inhibited”. Moreover, the “MNoV^CW3-induced cytopathic effect in BV2 cells (cell viability)” value in the assay on MNoV^CW3 [3] was “neutralized MNoV^CW3-induced cytopathic effect”. Moreover, in the assay on MNoV^CW3 [4], the “Neutralization of MNoV isolated from spleens of MNoV^CW3-infected mice (plaque assay)” value is “remained sensitive to sCD300lf inhibition”. Also, the “Protection from MNoV induced lethality (survival)” value in the assay with MNoV^CW3 [5] was “able to protect from MNoV induced lethality”. For the same molecule, the “MNoV^CW3 binding to BV2ΔCD300lf cells” value in the assay on MNoV^CW3 [1] (BV2ΔCD300lf cells, cells treated with α-CD300lf or virus premixed with sCD300lf) is “not further inhibited”. The “MNoV^CW3 binding to BV2 cells” value with MNoV^CW3 [1] (wild type BV2 cells, cells treated with α-CD300lf or virus preincubated with sCD300lf, 1 hour at 4° C.) is recorded as “reduced MNoV binding”.

Source of the values: patent publication US20180252712A1, “RECEPTOR FOR NOROVIRUS AND USES THEREOF” (priority 2017, published 2018).
